Assay results taken from the supplement of paper PMC10724198.
± gives the standard deviation of the averaged measurements.

Legend:
Saccharomyces cerevisiae [1] = assay: protein stability index of tFT-peptide fusion (C-terminal peptide) (PSI (0-1 scale)); higher = more stable (slower turnover)
Description: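 MPS profiling in S. cerevisiae of the tFT-X12 degron library: putative degron peptides plus stable controls, 12 aa, fused to the C-terminus of a sfGFP-mCherry timer. Cells are FACS-sorted into 8 mCherry/sfGFP bins and deep-sequenced. PSI runs from 0 (unstable) to 1 (stable). Backgrounds are wild type, das1Δ and doa10Δ at 30 °C, and wild type, das1Δ, cdc34-1 and cdc53-1 at 37 °C; 2-3 technical replicates each.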

Saccharomyces cerevisiae [2] = assay: as above; conditions: genetic background: wild type; temperature: 30 C
[3] = genetic background: cdc34-1, temperature: 37 C
[4] = genetic background: cdc53-1, temperature: 37 C
[5] = genetic background: das1 deletion, temperature: 30 C
[6] = genetic background: das1 deletion, temperature: 37 C
[7] = genetic background: doa10 deletion, temperature: 30 C
[8] = genetic background: wild type, temperature: 30 C
[9] = genetic background: wild type, temperature: 37 C
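Further: PSI is a weighted mean of sequencing reads over stability bins, variants kept only with over 10 reads, mCherry proximal and sfGFP distal, peptide attached via GGGS linker.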

Sequence | protein stability index (Saccharomyces cerevisiae [1]; [3]) | protein stability index (Saccharomyces cerevisiae [1]; [4]) | protein stability index (Saccharomyces cerevisiae [1]; [5]) | protein stability index (Saccharomyces cerevisiae [1]; [6]) | protein stability index (Saccharomyces cerevisiae [1]; [7]) | protein stability index (Saccharomyces cerevisiae [1]; [8]) | protein stability index (Saccharomyces cerevisiae [1]; [9]) | protein stability index (Saccharomyces cerevisiae [2])
PSVRCVVACFIN | 0.241 ± 0.021 | 0.584 ± 0.13 | 0.464 ± 0.02 | 0.576 ± 0.0068 | 0.137 ± 0.028 | 0.172 ± 0.039 | 0.165 ± 0.015 | 0.277 ± 0.015
GVWLRAVRGFGV | 0.706 ± 0.03 | 0.7586 ± 0.0013 | 0.646 ± 0.013 | 0.76107 ± 0.00069 | 0.652 ± 0.0083 | 0.6542 ± 0.0058 | 0.7403 ± 0.0064 | 0.738 ± 0.04
FGLVAYPLWYIS | 0.504 ± 0.04 | 0.765 ± 0.0058 | 0.668 ± 0.014 | 0.777 ± 0.0099 | 0.0782 ± 0.031 | 0.0991 ± 0.0037 | 0.105 ± 0.029 | 0.18 ± 0.013
GGKTLSIFLRIS | 0.611 ± 0.029 | 0.693 ± 0.021 | 0.554 ± 0.022 | 0.665 ± 0.0095 | 0.14 ± 0.013 | 0.159 ± 0.013 | 0.295 ± 0.017 | 0.258 ± 0.0057
GRPYHLCLFSCF | 0.646 ± 0.018 | 0.754 ± 0.013 | 0.646 ± 0.036 | 0.754 ± 0.024 | 0.333 ± 0.024 | 0.343 ± 0.027 | 0.577 ± 0.016 | 0.353 ± 0.021
GLCSGTGARWLV | 0.703 ± 0.0096 | 0.7667 ± 0.0022 | 0.636 ± 0.027 | 0.749 ± 0.018 | 0.52 ± 0.013 | 0.516 ± 0.0084 | 0.701 ± 0.016 | 0.559 ± 0.086
VWWTLWRVHMLG | 0.583 ± 0.028 | 0.644 ± 0.0072 | 0.592 ± 0.018 | 0.7151 ± 0.0031 | 0.106 ± 0.03 | 0.142 ± 0.021 | 0.218 ± 0.026 | 0.243 ± 0.024
GTRREFVILYLF | 0.544 ± 0.026 | 0.675 ± 0.027 | 0.525 ± 0.016 | 0.694 ± 0.035 | 0.119 ± 0.0081 | 0.133 ± 0.035 | 0.101 ± 0.019 | 0.191 ± 0.0076
KNGNVEILIKCT | 0.625 ± 0.081 | 0.6278 ± 0.0034 | 0.485 ± 0.018 | 0.631 ± 0.0084 | 0.377 ± 0.022 | 0.425 ± 0.034 | 0.58 ± 0.018 | 0.4881 ± 0.0027
SGFWVSVDVFFV | 0.0673 ± 0.026 | 0.171 ± 0.022 | 0.155 ± 0.03 | 0.32 ± 0.015 | 0.122 ± 0.012 | 0.136 ± 0.026 | 0.29 ± 0.0036 | 0.2434 ± 0.0016
AFRLRHEIISLM | 0.552 ± 0.081 | 0.726 ± 0.024 | 0.63 ± 0.056 | 0.744 ± 0.037 | 0.136 ± 0.0049 | 0.139 ± 0.037 | 0.344 ± 0.041 | 0.282 ± 0.013
CRWHLRIVRGLM | 0.5609 ± 0.0048 | 0.665 ± 0.00068 | 0.593 ± 0.01 | 0.6603 ± 0.0027 | 0.29 ± 0.019 | 0.276 ± 0.056 | 0.415 ± 0.019 | 0.377 ± 0.0026
GFLVPSSPRCHQ | 0.708 ± 0.018 | 0.72 ± 0.039 | 0.6427 ± 0.0046 | 0.72 ± 0.0086 | 0.654 ± 0.018 | 0.681 ± 0.047 | 0.691 ± 0.012 | 0.727 ± 0.0082
VCFAWWGARCVA | 0.601 ± 0.01 | 0.619 ± 0.0063 | 0.468 ± 0.026 | 0.6475 ± 0.0032 | 0.304 ± 0.024 | 0.357 ± 0.028 | 0.534 ± 0.029 | 0.477 ± 0.023
CLAWWLGRVWVC | 0.184 ± 0.018 | 0.225 ± 0.0095 | 0.219 ± 0.027 | 0.364 ± 0.0011 | 0.115 ± 0.011 | 0.0919 ± 0.017 | 0.105 ± 0.0053 | 0.141 ± 0.006
CGPLLVTLVLSM | 0.445 ± 0.045 | 0.423 ± 0.02 | 0.305 ± 0.032 | 0.5011 ± 0.0028 | 0.304 ± 0.01 | 0.306 ± 0.018 | 0.476 ± 0.012 | 0.404 ± 0.0049
PPSPVPPIWYLA | 0.636 ± 0.037 | 0.7595 ± 0.0041 | 0.707 ± 0.017 | 0.753 ± 0.029 | 0.233 ± 0.0083 | 0.261 ± 0.045 | 0.417 ± 0.019 | 0.372 ± 0.0055
WPRSFSIILLSR | 0.322 ± 0.036 | 0.3371 ± 0.002 | 0.265 ± 0.029 | 0.4355 ± 0.0031 | 0.361 ± 0.015 | 0.288 ± 0.025 | 0.419 ± 0.0043 | 0.285 ± 0.027
AVPTSPYSLIVY | 0.524 ± 0.0083 | 0.495 ± 0.088 | 0.367 ± 0.0063 | 0.54146 ± 0.00044 | 0.326 ± 0.011 | 0.337 ± 0.021 | 0.485 ± 0.011 | 0.476 ± 0.022
LYSLRRNWLRTP | 0.637 ± 0.032 | 0.726 ± 0.016 | 0.672 ± 0.016 | 0.772 ± 0.0095 | 0.1676 ± 0.0011 | 0.21 ± 0.026 | 0.478 ± 0.019 | 0.323 ± 0.04

Sequence | protein stability index (Saccharomyces cerevisiae [1]; [3]) | protein stability index (Saccharomyces cerevisiae [1]; [4]) | protein stability index (Saccharomyces cerevisiae [1]; [5]) | protein stability index (Saccharomyces cerevisiae [1]; [6]) | protein stability index (Saccharomyces cerevisiae [1]; [7]) | protein stability index (Saccharomyces cerevisiae [1]; [8]) | protein stability index (Saccharomyces cerevisiae [1]; [9]) | protein stability index (Saccharomyces cerevisiae [2])
FSLWSRRSITVY | 0.04947 ± 0.00046 | 0.0405 ± 0.018 | 0.104 ± 0.042 | 0.113 ± 0.019 | 0.0595 ± 0.02 | 0.0899 ± 0.026 | 0.0886 ± 0.049 | 0.198 ± 0.057
DDESLVGRWRKV | 0.647 ± 0.011 | 0.7263 ± 0.00098 | 0.6402 ± 0.0045 | 0.738 ± 0.011 | 0.25 ± 0.0057 | 0.313 ± 0.014 | 0.547 ± 0.019 | 0.365 ± 0.11
FCVGVLFSCLVF | 0.338 ± 0.041 | 0.412 ± 0.032 | 0.313 ± 0.021 | 0.4295 ± 0.0031 | 0.286 ± 0.0042 | 0.301 ± 0.019 | 0.43 ± 0.023 | 0.394 ± 0.019
FVSGRFLFFFVL | 0.52 ± 0.029 | 0.675 ± 0.0071 | 0.489 ± 0.018 | 0.699 ± 0.014 | 0.162 ± 0.0036 | 0.144 ± 0.018 | 0.208 ± 0.0074 | 0.204 ± 0.04
TRKKENERRKNG | 0.653 ± 0.032 | 0.7213 ± 0.0044 | 0.654 ± 0.015 | 0.71 ± 0.025 | 0.245 ± 0.013 | 0.278 ± 0.04 | 0.558 ± 0.012 | 0.422 ± 0.031
FGLRVHPIVFIF | 0.289 ± 0.032 | 0.269 ± 0.0053 | 0.374 ± 0.016 | 0.488 ± 0.018 | 0.0775 ± 0.022 | 0.0769 ± 0.016 | 0.0909 ± 0.047 | 0.128 ± 0.034
LWGLVGVCLVLC | 0.0679 ± 0.011 | 0.0705 ± 0.004 | 0.176 ± 0.021 | 0.229 ± 0.0061 | 0.135 ± 0.0079 | 0.113 ± 0.016 | 0.134 ± 0.011 | 0.169 ± 0.0084
DWTVSYLWVTAL | 0.534 ± 0.042 | 0.592 ± 0.019 | 0.469 ± 0.025 | 0.599 ± 0.006 | 0.185 ± 0.0044 | 0.208 ± 0.0091 | 0.385 ± 0.02 | 0.331 ± 0.015
SQKKKIKKYKET | 0.574 ± 0.032 | 0.665 ± 0.14 | 0.644 ± 0.032 | 0.706 ± 0.018 | 0.172 ± 0.0036 | 0.147 ± 0.041 | 0.208 ± 0.049 | 0.217 ± 0.033
LSARVFCFWFFS | 0.586 ± 0.018 | 0.635 ± 0.011 | 0.549 ± 0.05 | 0.677 ± 0.028 | 0.187 ± 0.017 | 0.201 ± 0.011 | 0.2852 ± 0.0022 | 0.31 ± 0.024
LQVPTLRLFVFF | 0.584 ± 0.029 | 0.724 ± 0.033 | 0.577 ± 0.02 | 0.698 ± 0.021 | 0.197 ± 0.0017 | 0.224 ± 0.012 | 0.398 ± 0.026 | 0.3 ± 0.0049
CVPGPRWWYHSA | 0.671 ± 0.031 | 0.755 ± 0.015 | 0.685 ± 0.031 | 0.775 ± 0.011 | 0.233 ± 0.0045 | 0.272 ± 0.019 | 0.53465 ± 0.00023 | 0.446 ± 0.0059
VFSAIPDWLILA | 0.492 ± 0.017 | 0.5094 ± 0.0035 | 0.387 ± 0.041 | 0.5492 ± 0.0043 | 0.279 ± 0.013 | 0.319 ± 0.016 | 0.462 ± 0.018 | 0.453 ± 0.0079
PPGLLPPCLLVV | 0.358 ± 0.027 | 0.373 ± 0.0093 | 0.307 ± 0.035 | 0.444 ± 0.02 | 0.2485 ± 0.00054 | 0.301 ± 0.028 | 0.395 ± 0.011 | 0.39 ± 0.05
IVIFQTAYVVRI | 0.159 ± 0.0011 | 0.233 ± 0.013 | 0.164 ± 0.011 | 0.238 ± 0.012 | 0.225 ± 0.034 | 0.173 ± 0.0086 | 0.234 ± 0.01 | 0.213 ± 0.0041
GLWLCRGLVRAW | 0.349 ± 0.026 | 0.382 ± 0.021 | 0.299 ± 0.021 | 0.46 ± 0.009 | 0.253 ± 0.001 | 0.289 ± 0.021 | 0.438 ± 0.014 | 0.43 ± 0.04
VYCLVLFFSQWC | 0.42 ± 0.03 | 0.484 ± 0.011 | 0.365 ± 0.025 | 0.543 ± 0.016 | 0.353 ± 0.013 | 0.351 ± 0.016 | 0.509 ± 0.013 | 0.452 ± 0.011
FFGFFWLFLLFC | 0.239 ± 0.022 | 0.222 ± 0.005 | 0.291 ± 0.021 | 0.364 ± 0.016 | 0.318 ± 0.019 | 0.202 ± 0.033 | 0.257 ± 0.02 | 0.267 ± 0.0029
IGFFFACFFSVF | 0.419 ± 0.057 | 0.444 ± 0.012 | 0.403 ± 0.021 | 0.518 ± 0.0099 | 0.352 ± 0.0041 | 0.363 ± 0.022 | 0.43 ± 0.019 | 0.442 ± 0.065
